From PMC8373667 come the findings set out here.

The assay concerns the target JJS-A6/A11 VHH heterodimer, thioredoxin-fused (alpaca (Vicugna pacos)). The assay can be described thus: far-Western, overlay or dot blot.

B1: recombinant Cp-P34 (natural protein)
chain: MSGVSRRAVITDPNGVYEGDVNEKGLKHGNGVYKVNTGDVYEGEYSNGLKNGYGVYTWANGDKFEGYYKDDIKWGHGIYRWSNGEVFEGEYVRGVKCGHGIYTWPNGDRFEGEYKDGVKEGFGVYKLATGRIYEGQYSRDMRNGQGTSRYTDGSVYTGEWFDGKEHGHGLLKFSDSSSYEGDFQNGAPNGQGKYTYSNGNYYVGGFKNGLTDGPGSLTFAEDNRVLKANWKDGQVDGDAAIIYPDGGKYTGEVVNGIRQGKGIMTESNGDIFDGEFFRDFRHGEGILTVNGKQKRVKYNMGKKVGLCSC
For the molecule B1, the percent of VHH binding to the native target blocked by the recombinant protein is 95.2%.
